Assay results from the DeepSol protein solubility set.

assay: soluble on expression in E. coli; label from the status in PepcDB or PDB records

Soluble on expression in E. coli, not soluble:
MNPTTLADVDTVIINANILTLDRDCPHAQAIAFAAGRILALGTTQELSPLAGRAATVVDARGSTLLPGFIDSHSHLMFGGVVAQALDLTEAACLSDLLDMVRSRAQSTPEGEWIRGYGVAAGRLKEKRYPTRQELDQVSGGRPVWLAEDSFHASLVNSKAFRMLEIPLSTPGVELAADGSPTGAFLNDAANVPARQRVFGFISDDEARQMLQHVTQLGATRGVTTVHAFEGSRMSADRDIELLMRFRHELPIHVVPYYETFDVERAMQLGVSGVGGCGRNCLDGMPNIQTAAMVDPYCCSEERGSLFQESIKLHNFVIAAFERGMQVGMHAMGDAAIEQLLATYERAIEETGRTDLRPRIEHFHVPSRDHVRRAADLGVGLAVQPIFTHLWGGRDGIFFERLGERRYKRIDTYREILDSGAIASCGADLPVHPADPLRWIQLLVDNQIDRDQSVSMTEAIRMCTYNGAWLGFQESETGTLAVSKAADAVMLGRDPHQCMPHEIAAIPILKTLGGKLVFESSRPLEHHHHHH
MGSDKIHHHHHHMKIAIASGKGGTGKTTVAVNFAQVLAAAGQEVTLLDCDVEEPNVHLFLHPEFDSVSAVETTIPQVDEEKCTGCRVCAEVCEYHALAVLGKNVLVFPELCHACGACVRFCPEEAIVEIPREIGTIRKGRKGKIRLIEGRLNVGEVMSPAVIERVKKIGLDGKIGIIDAPPGTSCPVIAAVRDTDGVLLVTEPTPFGLYDLKLAVGMVRLLGIPCAVAINRSDLGEKELWRYCSDERIPIILEIPNDRRIAEAYSRGRTIIEELPEYREKFLQGWQALLESCSIA
QMCSSLMIIAFDFDGTLVDSYSCIEEAFYRALKRTYPWLPGKRYIAKLLTKLELQFERPKFGKHGRKIKPPMKIFQGKFARAWFEERAKLTKPLDGAREVLERLKEDGHIVISFSAEDFIPGIKEYRLKISGLYDLFDDVIIFGRDITICEAFSIVREKYGYDTFVWVDDKPWRFIGRGDENTEYVWMYFPYTARFVSDDILAQIPHLHVIYDLWSLLDVVKNLK
MNEDLTNSTEYKRYGHDYAKYPRRIAEELQHYGGNSFANFFRDEGVLYKEILCDACDHLKVNYNEESATSLIEQNMLSKLLKDSLEKMSRREIKELCNELGMTNIDKVIGENKQVLIASTLTLFKAGGSHSYALAVSVADAMVRQTLGHVMWWVK
APLFIKNVNGIKVAILSYAYGFNGLESNLTEKEIANHLSNLDEKRMKVEIERAEKEADVTVIMPQMGVEYRLEPTDEQVKLYHKMIDWGADIIFGGHPHVVEPSEVVKKDGQQKLIIYSMGNFISNQRIETVDGVDNAAWTERSVLMDVTLEKKNCQTTIKTAQAHPTWVNRTPKGTISPEGYPLYTYQTYILEDFIKGRKYRNKLDEETKERIDTAYKEMNAHVNL
AGIVNQVTAKNITADLQGGYPWSESNPLLLSDVSVDVLGGQIIMKQLRMPQHDPALLRVQNISSSELISAINPKQFAMSGPVSGALPLWLNNEKWIIKDGWLTNPGPMTLRIDKDTADAVVKDNVTAGSAINWLRYMEITHSWTKINVDNLGVLTMQAAITGKSRVDGKTAIVNLNYTHEENVFTLWRSLRFGDNLQAWLEQNTALPQPP
MVESNKTAADTYSLAIFRAIRRLQQAAEIHSKRLSRYGGLTPLQLLILHVLAVEGELTATQLAKLVSLSQASLSGVLDRLEGRGLLYRRRDEQDRRKSWLHLDPAGHEALAEAPPLLPEYVIERFAALPEWERHGLLAALLRAADLFGLPEEDVEEE
MGLAQSHSRTPSRDPLPNDHQVMDVYEESGPRRGRKRKAAKGSEIEMKKVAKLNTCAYVYQKLFLQGENSDIVLAACGREWRVHKLYLKQTKFFESMFDGLWTESNSGRVQMEITDPNIDADGLNSVLGSLYHNEIEIDLDKIEGTVAAASYIVLDSVTDRCSEMMIEALSTKNAVRFYDVSTKYGLEKVREKSMEVLLHQFWKIMTDREKLNEVDRQLFVTLLNSPNLLIIEGEFDLYKVVKSWIYMREVPDCCKDDSPETFTQNASKFFKESKTSMFIKYADIFASLRIEQFLTCSETIKTVKSDALIPLSIVDEMTSALWSSLLENEESPKTLEMDDDEFFKRCIRLGRSLDSFPKCWRWIGFNFGVDLLLHVNDYSVCIKRNCLNQKAPYSVNLKSKHVLHYRLVICDSNGQILYDSGKTTWEMKPDEARTIYRMSEDLATQISVHFQYLIHQPICSTGHYVNKYLDDQNSTDDEDDEEEEDDDGDDEEDSS
MGSDKIHHHHHHMKAILIDDDQPTLFILNKMLAKIPRVEIVGEFLNAGDAYHFLKHNPVELAFVDIKMPGESGLDFAWRSLAEFPDLYVVFLTAYKDYAVEAFEVQAFDYIVKPIQQERLERTVSRVLQRKAAGISSRNTVEQAKVLFVYCLGGLDLRNTNDDFVMISSSKGQELFAYLLVHRERLTSKWRIMEDVFQGMSPQNAETYLNTTVYKLRKVLEQYGKRSAIVVASESYVMEIKDFYIDFIEFENKVRTLPSITEANLQEAIQTFHLFAGELFGDKDYQWSLAEKERLGDIYCSFAKKLGRYLLENQNSALALQVFKKLVAINELDEESHCFLLQVYAAQNDLPSLIRHYDRYVQLLQRELAISPSNRTAQLFLSLKKSLL
MGSDKIHHHHHHMIIDINMHHLPEDLFTNEKILDGFLSTAPRSYGEIASLGTIPETGKRQIILEKPKGYQNLNYVEGDYSLEAKLQAMDDNGVDKAILRVPVWQEWLKVDTCKIVNDNAAEMCKRSAGRLYATACVPPWGGKDNLYELERCVKDLGMVGVQLACHYGQLYLDDEAFKPYMKVLNELNVPVVVHHTPLPVYWQSVYEYTNLRRELGRIIDQATAVGRELFSGMFEEFPNLKFIHTMFGGNWFANYNLLMPHKGKKEEAMLRLDISESDRIKMYLKNNIYFDMTHPASWGKDQVECAIKVCGADHVLFGSSFPVFYNWMSQGIECVKSLDITEKERELITSGNAIRLFKLDV
MFRSVLVEAAVRVESPLLAHRLEDALLHACKQRFCSRILPSLGVCLTALRICKLVDGAGKQLALEIWPVEVSGGGLRARVHVELLLWSPLPHELAFAQVRSCSRFGIRLSILNGFDYAFVPPGSMPEPCTYHEEQRCWSWRFNEDDFVIGEGDWVRVLIERVEYATDSAMATFDSPGTVGSGPPLHILPPPVPVGRTVMETDQANATPGAHPEHAPPLETEPPEFWETPSILPLRVWARLDAPGLGPIDWWS

Soluble on expression in E. coli, soluble:
MNKENIIADAPSDVVKTVQQQVHLNQDEYKYLKQVEQILREGTRRDDRTGTGTISIFGMQSKYCLRNGTIPLLTTKRVYWKGVLEELLWFISGSTDGKLLMEKNVKIWEKNGDRAFLDNLGFTSREEGDLGPVYGFQWRHFGAKYVDCHTDYSGQGVDQLAEVIRQIKEQPDSRRIIMSAWNPSDLGQMVLPPCHTMCQFYVDNGELSCQLYQRSGDMGLGVPFNLASYGLLTHMIAKVCGLKPGTLVHTLGDAHVYSNHVDALKIQLDREPYAFPKIRFTRDVASIDDFTSDMIALDDYKCHPKIPMDMAV
MSLEFYIADFKQIKEGKVTDIYFERTLKTLEYLGIKDAKVRMEVHSYGLPKGYEWALFTGLEEVLHLLEGVPVNVYAMPEGTLFKEIEPVMIIEGNYLDFGIYETAFLGILRHYSSISTKAARLKFLAMDKTLFFFGLRSLHPALAPMADRAAYIGGMDGVSGAMSKEYLGVDPSGTMPHALMLIVGDNVKAWKAFDEAMGSEVPRITLVDTFEDERTEALKAATLLGKKLYGIRLDTPSSRRGNFRKIIQEVKWTLKIHGYDHVKIFASGGIDEDDIINLRDIVDGFGIGTSIAFPPSVDFSADIVEKFVDGKWVPFTKRGKWPGAKQVYRCGKLNDVITLMDQEHPSSDCKPLLQKYMENGKIIKPLPSPKEIREYVIKQLTELQSSEGHHHHHH
MGSSHHHHHHSSGLVPRGSHMANVAIIGTEKSGRTSLAANLGKKGTSSDITMYNNDKEGRNMVFVDAHSYPKTLKSLITALNISDIAVLCIPPQGLDAHTGECIIALDLLGFKHGIIALTRSDSTHMHAIDELKAKLKVITSGTVLQDWECISLNTNKSAKNPFEGVDELKARINEVAEKIEAENAELNSLPARIFIDHAFNVTGKGCVVLGVVKQGISKDKDKTKIFPLDRDIEIRSIQSHDVDIDSAPAGTRVGMRLKNVQAKDIERGFIISDKEIVTTDYTLECTVSKFTKKIEPASVLHLFVGLQSEPVRVEKILVDGNEVEEAKPGSTCVLELSGNKKLAYSKQDRFLLANLDLTQRFAAYGFSK
MSLSKYAVSYVYKTFADIGSYAWAKKQIEVLASKGVINGTSDTTFTPQADITRADFMILLVKALGLTAEVTSNFDDVSEKDYYYEYVGIAKELGITTGVGNNKFNPKAKITRQDMMVLTTNALRIAGKISSTGTRADVERFSDKDQIASYAVEGVATLVKEGIVVGSGDIINPRGNASRAELAAIIYKIYYKEGHHHHHH
ATLDVRGGYRSGSHAYETRLKVSEGWQNGWWASMESNTWNTIHDNKKENAALNDVQVEVNYAIKLDDQWTVRPGMLTHFSSNGTRYGPYVKLSWDATKDLNFGIRYRYDWKAYRQQDLSGDMSRDNVHRWDGYVTYHINSDFTFAWQTTLYSKQNDYRYANHKKWATENAFVLQYHMTPDITPYIEYDYLDRQGVYNGRDNLSENSYRIGVSFKL
STQDADRTLKRLQLQMDNLESRVALECKEAFAELQTDINELTNHMDGVQIPFLDYRTYAVRVLFPGIEAHPVLKELDTPPNVEKALRLFGQLLHSRAFLLTFIHTLEAQSSFSMRDRGTVASLTMVALQSRLDYATGLLKQLLADLIEKNLESKNHPKLLLRRTESVAEKMLTNWFTFLLHKFLKECAGEPLFLLYCAIKQQMEKGPIDAITGEARYSLSEDKLIRQQIDYKTLTLHCVCPESEGSAQVPVKVLNCDSITQAKDKLLDTVYKGIPYSQRPKAEDMDLEWRQGRMARIILQDEDITTKIECDWKRVNSLAHYQVTDGSLVALVPKQVSAYNMANSFTFTRSLSRYESLLRAASSPDSLRSRAPMLTPDQEAGTKLWHLVRNHDHTDHREGDRGSKMVSEIYLTRLLATKGTLQKFVDDLFETVFSTAHRGSALPLAIKYMFDFLDEQADQRQISDPDVRHTWKSNCLPLRFWVNVIKNPQFVFDIHKNSITDACLSVVAQTFMDSCSTSEHRLGKDSPSNKLLYAKDIPNYKSWVERYYRDIAKMASISDQDMDAYLVEQSRLHANDFNVLSALSELYFYVTKYRQEILTSLDRDASCRKHKLRQKLEQIITLVSSSS
MGHHHHHHGSLVPRGSDVQELNSIIQRISKFDNILKDKTIINQQDLRQISWNGIPKIHRPVVWKLLIGYLPVNTKRQEGFLQRKRKEYRDSLKHTFSDQHSRDIPTWHQIEIDIPRTNPHIPLYQFKSVQNSLQRILYLWAIRHPASGYVQGINDLVTPFFETFLTEYLPPSQIDDVKIKDPSTYMVDEQITDLEADTFWCLTKLLEQITDNYIHGQPGILRQVKNLSQLVKRIDADLYNHFQNEHVEFIQFAFRWMNCLLMREFQMGTVIRMWDTYLSETSQEVTSSYSMSSNDIKPPVTPTEPRVASFVTPTKDFQSPTTALSNMTPNNAVEDSGKMRQSSLNEFHVFVCAAFLIKWSDQLMEMDFQETITFLQNPPTKDWTETDIEMLLSEAFIWQSLYKDATSHWL
